Data published in PMC6144824.

Target: mitoribosome large subunit (mtLSU, 39S) (human (endogenous in HEK293T and 143B))
Assay: co-sedimentation

percent of total MTG1 co-sedimenting with mtLSU markers: 10%
Substance: MTG1 (human mitochondrial ribosome assembly GTPase), endogenous (natural protein)
